Results on one protein are retold here after patent US20150111836.

The target of this data set is purified recombinant N-terminal His6 tagged HIV-1 HXBII Vif protein (E. coli).

B1: purified recombinant A3G-His6 (human APOBEC3G with C-terminal Myc-His6 tag, expressed in 293T cells) (protein)
chain: MKPHFRNTVERMYRDTFSYNFYNRPILSRRNTVWLCYEVKTKGPSRPPLDAKIFRGQVYSELKYHPEMRFFHWFSKWRKLHRDQEYEVTWYISWSPCTKCTRDMATFLAEDPKVTLTIFVARLYYFWDPDYQEALRSLCQKRDGPRATMKIMNYDEFQHCWSKFVYSQRELFEPWNNLPKYYILLHIMLGEILRHSMDPPTFTFNFNNEPWVRGRHETYLCYEVERMHNDTWVLLNQRRGFLCNQAPHKHGFLEGRHAELCFLDVIPFWKLDLDQDYRVTCFTSWSPCFSCAQEMAKFISKNKHVSLCIFTARIYDDQGRCQEGLRTLAEAGAKISIMTYSEFKHCWDTFVDHQGCPFQPWDGLDEHSQDLSGRLRAILQNQEN
With B1, the “A3G-mediated deamination of the ss-deoxyoligonucleotide substrate” value is “Vif inhibits A3G deaminase activity in a dose-dependent manner”.
